Measured values: the DeepSol protein solubility set

Test: soluble on expression in E. coli; label from the status in PepcDB or PDB records
For “MGAYLNKPIIEKEKEEGSGNGLSYACTTMQGWRVNQEDAHNCVVDLHTDWHMFGVYDGHGGTEVSKFTSAKLPDFLKERKFWEADDVAECLQKAFVDFDDFIRAEESMKELKDIGDEGKPKKAGGEADSEDEADRIDTIEEASVPLAELLKRYGGAGVGKSLLSAFLAKGDVSDDSEDEDEDEEEAEEQDDTEEKKENEDASAEVVIENAEDKEEEEGSPKKKGQKRCQKSPIQSEAKKSKSETDAETAPSSSSGVDGVATEEEDEDDSDKEFVADEEEDDEDAEDEQSDEEMVDGSLAPLLLGSGGAEVPGEDSGTTACVCLVGKDKVIVANAGDSRAVLCRNGKAVDLSVDHKPEDEVETNRIHAAGGQIEDGRVNGGLNLSRAFGDHAYKKNQELGLKEQMITALPDVKIEALTPEDEFIVVACDGIWNSMESQQVVDFVRDLLAKGSSCAEVCDALCDACLADSTDGDGTGCDNMTVICTTFDRKSK”, the “soluble on expression in E. coli” value was “not soluble”.
For “MGCDFAIAKDFLLFFLTKPISMKLSVIIPIYNEIQTIEKILKKITTVMPEIPKEIVMVDDGSKDGTREWLVDTFGDPEQHPVLANVNLAGKFQCFPLDQSAETNGDRQGNSFVMPKEWEVKVIFHRQNQGKGGALHTAFAAATGDVLIIQDADLEYDPEDWGPMWKLIDGGWADVVYGSRFYGNPHRVLYFHHYLGNKLITSLIDLVCNINLTDIEVCYKMFRREVLEDLRLTCNDFGFEVEFTMKVTRSPKRWRIYEVGVAYYGRTFAEGKKINWRDGVKALGYIAKFWLTNALEHHHHHH”, the “soluble on expression in E. coli” value was “not soluble”.
With “MGDEYMDDDEDYGFEYEDDSGSEPDVDMENQYYTAKGLRSDGKLDEAIKSFEKVLELEGEKGEWGFKALKQMIKITFGQNRLEKMLEYYRQLLTYIKSAVTKNYSEKSINAILDYISTSRQMDLLQHFYETTLDALKDAKNERLWFKTNTKLGKLFFDLHEFTKLEKIVKQLKVSCKNEQGEEDQRKGTQLLEIYALEIQMYTEQKNNKALKWVYELATQAIHTKSAIPHPLILGTIRECGGKMHLRDGRFLDAHTDFFEAFKNYDESGSPRRTTCLKYLVLANMLIKSDINPFDSQEAKPFKNEPEIVAMTQMVQAYQDNDIQAFEQIMAAHQDSIMADPFIREHTEELMNNIRTQVLLRLIRPYTNVRISYLSQKLKVSQKEVIHLLVDAILDDGLEAKINEESGMIEMPKNKKKMMVTSLVVPNAGDQGTTKSDSKPGTSSEPSTTTSVTSSILQGPPATSSCHQELSMDGLRVWAERIDSIQSNIGTRIKF” the “soluble on expression in E. coli” value was “not soluble”.
For “MGDQPFIPPPQQTALTVNDHDEVTVWNAAPCPMLPRDQVYVRVEAVAINPSDTKMRGQFATPWAFLGTDYAGTVVAVGSDVTHIQVGDRVYGAQNEMCPRTPDQGAFSQYTVTRGRVWAKIPKGLSFEQAAALPAGISTAGLAMKLLGLPLPSPSADQPPTHSKPVYVLVYGGSTATATVTMQMLRLSGYIPIATCSPHNFDLAKSRGAEEVFDYRAPNLAQTIRTYTKNNLRYALDCITNVESTTFCFAAIGRAGGHYVSLNPFPEHAATRKMVTTDWTLGPTIFGEGSTWPAPYGRPGSEEERQFGEDLWRIAGQLVEDGRLVHHPLRVVQGGFDHIKQGMELVRKGELSGEKLVVRLEGPLEHHHHHH”, the “soluble on expression in E. coli” value was “soluble”.
In the case of “MGDSTFLDRMLLQLRSTCKYYSGYPKDLGPSRVLHFTSEREFVQLLHQGYPVVVAFTIRSNYTQHLDRMLEEAAAEFYPNIKFMRVECPKYPGFCITRQKNEYPFIEIFHSPQHAGNEGKVQDPNITRYSVKVVPYNYDMSPYGFREFFKRQGVRTSDPK”, the “soluble on expression in E. coli” value is reported as “not soluble”.
With “MGDTFIRHIALLGFEKRFIPSQHYVYMFLVKWQDLSEKVVYRKFTEIYEFHKMLKEMFPIEAGEIHTENRVIPHLPAPRWFDGQRAAESRQGTLTEYFNGLMGLPVKISRCPHLLDFFKVRPDDLKLPTDSQAKKPETYLVPKDGKNNVADITGPIILQTYRAIADYEKSSGTEMTVATGDVVDVVEKSESGWWFCQMKTKRGWVPASYLEPLDSPDEAEDPDPNYAGEPYVTIKAYAAVEEDEMSLSEGEAIEVIHKLLDGWWVVRKGDITGYFPSMYLQKAGEEITQAQRQIRGRGAPPRRSTIRNAQSIHQRSRKRLSQDTYRRNSVRFLQQRRRPGRPGPLSTDGTKDNPSTPRVKPQPAVPPRPSSDLILHRCTESTKRKLTSAV” the “soluble on expression in E. coli” value was “soluble”.
With “MGEEKEIRIIVLEDGEHLESVIRKIEKGWIVRFKRGSSLLGKKVKVFTSICPGNSLEWSEGKDHLAVYCQVECKEAGSFRYWFKIEDSEERGSGYFLVMPELKINGKCLPLDGIACQTYLTKLLGPLSEWKERLEVAHQTGYNMIHLTPIHELGISNSSYSLSDHHSLIKTIQSQDQKFGFEDVQALVGDLERSWNILTVQDVVWNHAAKNATWLLEHPESAYNCLNSPHLRPAYVIDRVYHEFGKQIGEGVWEHRGVPPVVDNIHHVNAIEYLLRAEVLPKADLHEFYQVDLKAMVNLFEVFIKQSSGPTTNPLDGEDVEIEQDLECRRFGNTVDFERSARIFNRHRGDAKSEEERVEKCVRSFEEALNNKNLEAARESWEVILAGLAAVMGGITYERIADNGPKKGLVSPENPLTTDYFLHLEADLGWKSEEKFAYDPEKSKFLMAFNGWVMSSDPMKNFALKESQVYLRRELVCWGDSVKLNYGNKEADSPFLWQYMKEYTQQAARIFHGLRIDNAHGTPIHVAEKLLKTAREVRPDIYVFAELFTGSEHADNMFVNRLGISSLIREAQSAHDSHEQGRLVYRYGGDCVGAFKQKSARLAPKSIAHGLFLDQSHDNPSPIHTRSPFDILPTAAMLTMASCAVGSNRGYDELIRDHIHVVSEKRPYASWCRPDQVSRSQGIIEGRNLLNKLHTWLAEHGYSQVFVDQMNSDIVGITRHNPRTHETVVVVSHTSFSKNYIDWPGGLKHIPIGGVLENVIFEMKLKKVQEEWGTEDPDVLIGLKNYEMEIRENVNLDNGTMFKVHDGYIELTNFPTGSVVGFKIRPSDEATKAFNMIHNSITPEQSEFDSALSRLTYQSFPNLLFHCESEDYATIQQGGYDVPNFGKFVYCGLQGLVPVLEKIRDDNDLGHPLCQNLRDGTWICDYIVGRLAKFEKLGEVSEAIRKFFAPLDHVPYYLRPCYFELLVSYIYGKIRKEALKRMAPQISSSSALVRHLAISTLSFLGYIPGAGLAPIPTSLQIEDQYPSSLAAGLSHFAVGIWRNWGRDTFIALPGCLLSTGRFQEARQIILSFAGAIRHGLIPNLLAEGIGARYNCRDATWFWLVSIVKYVESAPNGVGILEDPVRRIYPNDDSVYGEGEVQQMLIETIYEALDKHFAGIDYRERSAGPQIDEQMRDEGFQVTAGVSRTTGFIYGGNRWNCGTWMDKMGSSERAGNKGEPATPRDGAAVELQGLAYRALKSLKNWKEQGVIQRSGVSDEWTWGFWAQKIRENFEKEFFVDKDSYAEFVNRREIIKDSVGSTLGFTDFQLRCNFGIALAVAPDLMDPKKAWKALDSAEVLLGPLGMKTLDPTDWAYNGYYNNDDDGTDKKTAKGWNYHQGPEWLFVAGYYLQARLRIGDILGGSEKQYAIRQVQERLGNAYKHIISSPWRSLPELTNADGEYCMQSCAAQAWSVGCLIEACVKLNTIEG” the “soluble on expression in E. coli” value was “not soluble”.
With “MGFGNINFCAVDLGSHKITVAIGQLAENNSIKILGVSQKQSKGIKQGSVINLEIAMETLNAALDEAKSIAGVDVKEVTLGVSAPSISGFNSYGLAAVENGEVSIEDLAMAIKTAKAVPMSADTEMLHVLQRDYIVDGQAGVTEPIGMFAVRLESNVHIIVASSRLLQNVRKCVSNCGYSISNLVVEHLAASSATLTDNEKEMGVCLVNIGADSTSFSVFADGGICYTSSIKTGGASISSDISKVFRLPIEAAESLKLQYGYAASKYLKNPDEKIDIPNSLGNAKKRISLQDLSLVIEARVEEIFESLYRELDQHRLLEVISSGIVFTGGGAKLKGLARLAEDMFKLPVRVGGPIEVSGANEVVHNPSYATVVGLLKYAAENSDTSNQQKIEEDVMEIDENTGKSKKKIISSVKGWFSNNF” the “soluble on expression in E. coli” value was “not soluble”.
In the case of “MGFLERIKKLFSKEEEKQEESILSNPLERLKKGDIIEIDGETWEVTDVALYDYGASKEKEWEIRSASRRGFLSLEEGKIYFFEEIDPEELEPDPGEHFRKYGKPPEYVTYKGKRYRLKYAGKAKYIKNLESYPVTIWEFRSEDGEMIDLEIWDEYEIEAYKGRELQEWEIESILPR”, the “soluble on expression in E. coli” value is reported as “not soluble”.
For “MGFLPDSWHFYIETLLVALLAYVVMRNRSKRQQEKLSKKLTERQKDELIADWTPEPLVPETPQDHPVLNPKYADGKMTKDVSIDGEKYLNMASTNFLSFIGVKRIEDRAKQTIFKYGVGSCGPRGFYGTVDVHLDLEKELAKFMGCEEAVLYSYGFATVSSAIPAYAKKGDVIFVDEGVNFAIQKGLQASRSRVEYFKHNDMEHLERLLLEQEQRDKKDPKKAKSVRRFIVVEGLYVNYADLCPLPKIIEFKWRFKVRVFIDESWSFGVIGKTGRGVTEHFNVPMEDVDMVMASLENALASTGGFCVGRSYVVGHQRLSGLGYCFSASLPPLLATAASEAISIIDEEPSRVQKVTEMAINGQKKLQDALSGSKFSLQGCPESPMKHIYYNGEDEEKQLDTFVETVFTKNHLLLTRARYLDKDELFKIRPSIRVMFQHDLTEEEIQRAVDAIRVVAHKF”, the “soluble on expression in E. coli” value was “not soluble”.
In the case of “MGFLWKTAKLGIKVGLVAGAVKLSIDNDIWSTNNVKGSELYQKLKKYILPGTVVFPEQLPTVEDVQLKAGGKWNSAVDSVFTTIENVPSSVNTVANRLINNK”, the “soluble on expression in E. coli” value is reported as “not soluble”.
For “MGGIPDITPYPLTYSLGGVIPLSSVLEMLWVEKYRPRSLDDIVDQKHVVERLKQFVKQRNMPHLLFAGPPGTGKTTAAHALAHDLFGENYRQYMLELNASDERGINVIREKVKEFARSRTPPEIPFKIVLLDEADNMTSDAQQALRRLMELYSSVTRFILIANYPSKIIDPIQSRCAFFRFQPLSKQDVIERLRYIAENEGVDYEEEALDAIYEISEGDMRKAINVLQAASYLGKVTVDAVYRVVGMAKPREVREMLATALKGDFTAARSLLRKIMIEYGMSGEDVARQIHRELFSTELKMPEELRVLAADYLGEVHYRLVEGSDDDIQLSAFLAWLTMMSRKLEV”, the “soluble on expression in E. coli” value was “soluble”.
For “MGGLSAQSTAATATMGGKNKQRTKGNLRPSNSGRAAELLAKEQGTVPGFIGFGTSQSDLGYVPAIQGAEEIDSLVDSDFRMVLRKLSKKDVTTKLKAMQEFGTMCTERDTETVKGVLPYWPRIFCKISLDHDRRVREATQQAFEKLILKVKKQLGPYLKSLMGYWLMAQCDTYTPAAFAAKDAFEAAFPPSKQPEAIAFCKDEITSVLQDHLIKETPDTLSDPQTVQRKKEKLNSTGLLEHHHHHH”, the “soluble on expression in E. coli” value was “not soluble”.
For “MGGSHHHHHHGMASALAPKQDPKPKFQEGERVLCFHGPLLYEAKCVKVAIKDKQVKYFIHYSGWNKNWDEWVPESRVLKYVDTNLQKQRELQKANQEQYAEGKMRGAAPGKKTSGLQQKNVEVKTKKNKQKTPGNGDGGSTSETPQPPRKKRARVDPTVENEETFMNRVEVKVKIPEELKPWLVDDWDLITRQKQLFYLPAKKNVDSILEDYANYKKSRGNTDNKEYAVNEVVAGIKEYFNVMLGTQLLYKFERPQYAEILADHPDAPMSQVYGAPHLLRLFVRIGAMLAYTPLDEKSLALLLNYLHDFLKYLAKNSATLFSASDYEVAPPEYHRKAV”, the “soluble on expression in E. coli” value was “not soluble”.
In the case of “MGGSHHHHHHGMASALSQATKRKHVVKEVLGEHIVPSNQQQIVRVLRTPGNNLHEVETAQGQRFLVSMPSKYRKNIWIKRGDFLIVDPIEEGEKVKAEISFVLCKDHVRSLQKEGFWPEAFSEVAEKHNNRNRQTQPELPAEPQLSGEESSSEDDSDLFVNTNRRQYHESEEESEEEEAA”, the “soluble on expression in E. coli” value is reported as “not soluble”.
For “MGHEAKHPIIIGITGNIGSGKSTVAALLRSWGYPVLDLDALAARARENKEEELKRLFPEAVVGGRLDRRALARLVFSDPERLKALEAVVHPEVRRLLMEELSRLEAPLVFLEIPLLFEKGWEGRLHGTLLVAAPLEERVRRVMARSGLSREEVLARERAQMPEEEKRKRATWVLENTGSLEDLERALKAVLAELTGGAKEGRG”, the “soluble on expression in E. coli” value was “soluble”.
